# Reference: publication doi:10.1101/738179, “Rad51 Interaction Analysis Reveals a Functional Interplay Among Recombination Auxiliary Factors” (bioRxiv, 2019)
# B1: Swi5-Sfr1 (wild type, full-length Sfr1) (complex, S. pombe)
# chain 1: MEKSQLESRVHLLEQQKEQLESSLQDALAKLKNRDAKQTVQKHIDLLHTYNEIRDIALGMIGKVAEHEKCTSVELFDRFGVNGSE
# chain 2: MSQTINSELNENATSQCKEDLKVSLSESDLRDSQGQLGIENPPKCNNSGNHSDNLGFIEQSETVHPENEKALTPDLRDTKIHTSLPITTPFSKKRAREAKNILLKPFKSPLRQTASPQVADTNLKPSLAVTNLNSDETNTSSEPVTSPLRTTPNSIKRQKRLFKSPISNCLNPKSDPEITQLLSRRLKLEKEVRNLQEQLITAETARKVEAKNEDKDLQTLIQKWKNAAQQAAEVLFKPMAERIRLAGGVTQSFRIEEGENKGQIQEVRTEFTMSMFLNQFGVPVHLMSFDEENGDWKS
# B2: Rad51 (natural protein, S. pombe, UniProt P36601 1-365, looked up)
# chain: MADTEVEMQVSAADTNNNENGQAQSNYEYDVNVQDEEDEAAAGPMPLQMLEGNGITASDIKKIHEAGYYTVESIAYTPKRQLLLIKGISEAKADKLLGEASKLVPMGFTTATEYHIRRSELITITTGSKQLDTLLQGGVETGSITELFGEFRTGKSQICHTLAVTCQLPIDMGGGEGKCLYIDTEGTFRPVRLLAVADRYGLNGEEVLDNVAYARAYNADHQLELLQQAANMMSESRFSLLVVDSCTALYRTDFSGRGELSARQMHLARFMRTLQRLADEFGIAVVITNQVVAQVDGISFNPDPKKPIGGNILAHSSTTRLSLRKGRGEQRICKIYDSPCLPESEAIFAINSDGVGDPKEIIAPV
# notes: Rad51, RecA-family recombinase of S. pombe; Covalently attached to Affi-gel 15 in the pull-down; Multimer in solution by SEC; also called Affi-Rad51
# Tests used:
# Rad51 = target: B2; assay: cell-based or functional assay
# [1] = target: B1; assay: pull-down; Rad51 covalently attached to Affi-gel 15 (2 µg protein/µL gel); Swi5-Sfr1 variant in Affi-gel buffer (25 mM HEPES-KOH pH 7.5, 150 mM NaCl, 3.5 mM MgCl2, 0.5 mM DTT, 0.05 µg/µL BSA, 10% glycerol, 0.05% igepal CA-630); 30 °C 30 min; Sfr1 detected by immunoblot; Affi-BSA as control; settings: both partners purified
"Rad51-dependent ATP turnover, fold increase at a Swi5-Sfr1:Rad51 ratio of 1:20 (0.25 µM Swi5-Sfr1, 5 µM Rad51) (Rad51)",binding result [1],Binder
1.85 fold,,B1
,binds,B2
